In ChEMBL document CHEMBL2074568, “Characterization of the transport properties of human multidrug resistance protein 7 (MRP7, ABCC10)” (Mol Pharmacol, 2003):

Substrate: C[C@]12CC[C@@H]3c4ccc(O)cc4CC[C@H]3[C@@H]1CC[C@@H]2O[C@@H]1O[C@H](C(=O)O)[C@@H](O)[C@H](O)[C@H]1O
Experiment: TP_TRANSPORTER: uptake in membrane vesicles from MRP7-expressing HEK293 cells
Format: functional, cell membranes
Details: Membrane vesicle

B1: ATP-binding cassette sub-family C member 10 (Homo sapiens), Q5T3U5 (protein)
chain: MERLLAQLCGSSAAWPLPLWEGDTTGHCFTQLVLSALPHALLAVLSACYLGTPRSPDYILPCSPGWRLRLAASFLLSVFPLLDLLPVALPPGAGPGPIGLEVLAGCVAAVAWISHSLALWVLAHSPHGHSRGPLALALVALLPAPALVLTVLWHCQRGTLLPPLLPGPMARLCLLILQLAALLAYALGWAAPGGPREPWAQEPLLPEDQEPEVAEDGESWLSRFSYAWLAPLLARGACGELRQPQDICRLPHRLQPTYLARVFQAHWQEGARLWRALYGAFGRCYLALGLLKLVGTMLGFSGPLLLSLLVGFLEEGQEPLSHGLLYALGLAGGAVLGAVLQNQYGYEVYKVTLQARGAVLNILYCKALQLGPSRPPTGEALNLLGTDSERLLNFAGSFHEAWGLPLQLAITLYLLYQQVGVAFVGGLILALLLVPVNKVIATRIMASNQEMLQHKDARVKLVTELLSGIRVIKFCGWEQALGARVEACRARELGRLRVIKYLDAACVYLWAALPVVISIVIFITYVLMGHQLTATKVFTALALVRMLILPLNNFPWVINGLLEAKVSLDRIQLFLDLPNHNPQAYYSPDPPAEPSTVLELHGALFSWDPVGTSLETFISHLEVKKGMLVGIVGKVGCGKSSLLAAIAGELHRLRGHVAVRGLSKGFGLATQEPWIQFATIRDNILFGKTFDAQLYKEVLEACALNDDLSILPAGDQTEVGEKGVTLSGGQRARIALARAVYQEKELYLLDDPLAAVDADVANHLLHRCILGMLSYTTRLLCTHRTEYLERADAVLLMEAGRLIRAGPPSEILPLVQAVPKAWAENGQESDSATAQSVQNPEKTKEGLEEEQSTSGRLLQEESKKEGAVALHVYQAYWKAVGQGLALAILFSLLLMQATRNAADWWLSHWISQLKAENSSQEAQPSTSPASMGLFSPQLLLFSPGNLYIPVFPLPKAAPNGSSDIRFYLTVYATIAGVNSLCTLLRAVLFAAGTLQAAATLHRRLLHRVLMAPVTFFNATPTGRILNRFSSDVACADDSLPFILNILLANAAGLLGLLAVLGSGLPWLLLLLPPLSIMYYHVQRHYRASSRELRRLGSLTLSPLYSHLADTLAGLSVLRATGATYRFEEENLRLLELNQRCQFATSATMQWLDIRLQLMGAAVVSAIAGIALVQHQQGLANPGLVGLSLSYALSLTGLLSGLVSSFTQTEAMLVSVERLEEYTCDLPQEPQGQPLQLGTGWLTQGGVEFQDVVLAYRPGLPNALDGVTFCVQPGEKLGIVGRTGSGKSSLLLVLFRLLEPSSGRVLLDGVDTSQLELAQLRSQLAIIPQEPFLFSGTVRENLDPQGLHKDRALWQALKQCHLSEVITSMGGLDGELGEGGRSLSLGQRQLLCLARALLTDAKILCIDEATASVDQKTDQLLQQTICKRFANKTVLTIAHRLNTILNSDRVLVLQAGRVVELDSPATLRNQPHSLFQQLLQSSQQGVPASLGGP
Km: 57.8 µM
